The record followed here is patent US20250163169A1, “ANTIBODIES FOR PREVENTING THE CLEAVAGE OF CD95L BY METALLOPROTEASES” (INSTITUT NATIONAL DE LA SANTÉ ET DE LA RECHERCHE MÉDICALE, priority 2022, published 2025).

In one test the test system is CD95L cleavage by MMP2. The test can be described thus: Cleavage of recombinant Ig-CD95L by MMP2 in vitro, cleaved fragment monitored by immunoblotting. The format is biochemical, Homo sapiens. To be noted: Ig-CD95L 100 ng pre-incubated 15 min with antibody (100 pg/mL), then MMP 1 h. On the procedure: (§1) FIG. 2. Monoclonal antibodies targeting the Metalloprotease-Cleavage Sites of CD95L (MCSCs). A. Left panel: The extracellular region of CD95L encompassing amino acid residues 102 to 281 can be cleaved by metalloproteases at different sites. Arrows represent putative cleavage site in CD95L sequence. Right panel: Using three peptides (peptides 1, 2 and 3) covering most of the MCSCs of CD95L, we have generated monoclonal antibodies. Indicated peptides were injected in mice to generate monoclonal antibodies and three different hybridoma were selected regarding their ability to bind CD95L. According to their affinity for the indicated peptides (assessed using ELISA), the 3C7 epitope should cover the […] sequence (SEQ ID NO:24). […] The metalloprotease-cleaved fragment of Ig-CD95L (CD95L devoid of its released Ig domain of gp190) was monitored by immunoblotting. […] CD95L-expressing leukemic T cell 1A12 was incubated for 24 h with indicated antibodies ([…]) or the pan-MMP inhibitor GM6001 (10 μM) and the expression level of membrane-bound CD95L was assessed by flow cytometry. […]
Sequence of CD95L cleavage by MMP2 (P48023 103-281 limits assumed): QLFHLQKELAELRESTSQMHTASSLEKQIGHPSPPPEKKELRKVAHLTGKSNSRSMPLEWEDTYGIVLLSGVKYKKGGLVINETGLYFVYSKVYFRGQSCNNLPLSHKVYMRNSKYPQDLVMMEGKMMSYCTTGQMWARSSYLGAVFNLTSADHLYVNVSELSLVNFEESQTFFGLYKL
(§2) We have generated different extracellular regions of CD95L fused to large domains including the Ig domain of the gp190 (LIF receptor). […] The privileged cleavage sites (^113EL^114 for MMPs and ^129KQ^130 for ADAM) were then determined from MS/MS sequencing of the resulting cleavage products. […]
Background: A western blot detects proteins with antibodies after separation by electrophoresis.

For a further test, the system named is CD95L cleavage by MMP3. Kind of test: Cleavage of recombinant Ig-CD95L by MMP3 in vitro, cleaved fragment monitored by immunoblotting. The class given is biochemical, Homo sapiens. To be noted: Ig-CD95L 100 ng pre-incubated 15 min with antibody (100 pg/mL), then MMP 1 h. On the procedure:
as §1, §2

The subject of test [1] is CD95L-expressing leukemic T cell 1A12. The test can be described thus: Expression level of membrane-bound CD95L on 1A12 cells by flow cytometry. The class given is cell-based. The note with it: 24 h, antibodies 10 pg/mL, GM6001 10 μM. On the procedure: (§3) FIG. 2. Monoclonal antibodies targeting the Metalloprotease-Cleavage Sites of CD95L (MCSCs). […] Arrows represent putative cleavage site in CD95L sequence. […] Indicated peptides were injected in mice to generate monoclonal antibodies and three different hybridoma were selected regarding their ability to bind CD95L. […] B. Recombinant Ig-CD95L (100 ng) was pre-incubated for 15 min with indicated antibodies (100 pg/mL) and then treated for 1h with the indicated MMPs. The metalloprotease-cleaved fragment of Ig-CD95L (CD95L devoid of its released Ig domain of gp190) was monitored by immunoblotting. C. CD95L-expressing leukemic T cell 1A12 was incubated for 24 h with indicated antibodies ([…]) or the pan-MMP inhibitor GM6001 (10 μM) and the expression level of membrane-bound CD95L was assessed by flow cytometry. D. Supernatants were harvested from cells treated in C and the metalloprotease-cleaved CD95L was dosed by ELISA (Diaclone).
Background: A flow cytometer gives signals particle by particle.

For test [2], the system named is s-CD95L release from 1A12 cells. The test can be described thus: Metalloprotease-cleaved CD95L dosed by ELISA in supernatants of 1A12 cells. To be noted: 1A12 cells treated 24 hours, vs isotype (anti-myc 9E10 mAb) control. The format is cell-based. On the procedure: as §3
In general terms: An ELISA detects its analyte on a solid surface through an enzyme-linked reagent.

For test [3], the system named is triple negative breast cancer cells MDA-MB-231. The test can be described thus: Boyden chamber assay, migration of MDA-MB-231 cells towards 1A12 (CD95L+) cells. The class given is cell-based. The note with it: 1A12 (CD95L+) cells in lower chamber, mAb 10 pg/mL, 24 hours. On the procedure: (§4) FIG. 3. Antibody targeting the Metalloprotease-Cleavage Sites of CD95L (MCSCs) blocks the non-apoptotic functions of CD95L without affecting its apoptotic ones. A. WR19L (CD95L−) or 1A12 (CD95L+) cells were placed in the lower chamber of a Boyden chamber assay in the presence of the indicated mAbs ([…]). Triple negative breast cancer cell MDA-MB-231 was added to the upper part of the chamber and cell migration due to the gradient of metalloprotease-cleaved CD95L was evaluated after 24 hours by fixing and staining (Giemsa) migrating cells covering the lower side of the porous membrane. Left panel: Pictures of the Giemsa-stained MDA-MB-231 cells that migrated to the lower side of the membrane in the presence of WR19L (CD95L−) or 1A12 (CD95L+) cells and with isotypic (9E10) or anti-MCSC (3C7) monoclonal antibody. Right panel: Giemsa-stained MDA-MB-231 cells were lysed and absorbance was measured at a wavelength of 560 nm. Values represent the means and SEM of three independently performed experiments. **p<0.01 as calculated using two-tailed Mann-Whitney test. B. Upper panel: Jurkat cells are sensitive to the CD95-mediated apoptotic signal. […] Cell death was monitored by measuring the drop of mitochondrial transmembrane potential (Δψm). […] Cell death was monitored by measuring the drop of mitochondrial transmembrane potential (Δψm). […]

Another test has as its system Jurkat cells. Kind of test: Jurkat cell death induced by mAb-pre-treated 1A12 cells, drop of mitochondrial transmembrane potential (DIOC6). The format is cell-based. The note with it: 1A12 cells pre-treated 24 hours with 10 μg/mL mAb, then 4 hours with Jurkat cells. On the procedure:
as §4

Sequence of CD95L cleavage by MMP3 (P48023 103-281 limits assumed): as above

B1: 9F5: Monoclonal antibody targeting Metalloprotease-Cleavage Sites of CD95L; light chain SEQ ID NO:18, heavy chain SEQ ID NO:19 (antibody, listed as Mus musculus, V domains shown)
VH: QVQLQQSGAELAKPGASVKMSCKASGYTFTTYWMHWVKQRPGQDLEWIGYINPRNGYTEYNQNFKDKATLTADKSSTTAFMQLSSLTSEDSALYYCAVDLGYWGQGTLVTVSA
VL: DIVMTQSPSSLAMSVGQKVTMNCKSSQSLLSSRNQKTYLAWYQQKPGQSPKLLVYFTSTRASGVPDRFIGSGGTDFTLTISSVQAEDLALYYCQQHYNTPWTFGGGTKLEIK
As for B1, the “Cleavage of CD95L by MMP2 in vitro” value with CD95L cleavage by MMP2 is given as “efficiently abrogated the cleavage”. Moreover, the “Cleavage of CD95L by MMP3 in vitro” value with CD95L cleavage by MMP3 is “efficiently abrogated the cleavage”. The “Expression level of membrane-bound CD95L” value in test [1] is “did not alter”.

B2: 3C7: Monoclonal antibody targeting Metalloprotease-Cleavage Sites of CD95L; light chain SEQ ID NO:16, heavy chain SEQ ID NO:17 (antibody, listed as Mus musculus, V domains shown)
VH: QVQLQQSGAELAKPGASVKMSCKTSGYTFTSYWMHWVKQRPGQGLEWIGYINPNTGYTEYIQRFRDKATLTADKSSGTAYMQLSSLTSEDSAVYYCAVDLGYWGQGTLVTVSA
VL: DIVMTQSPSSLAMSVGQKVTMSCKSSQSLLSSRTQKHYLAWYQQKPGQSPKLLVYFTSTRESGVPDRFIGSGSGTDFTLTISSVQAEDLALYYCKQHYNTPWTFGGGTKLEIK
As for B2, the “Cleavage of CD95L by MMP2 in vitro” value in the test on CD95L cleavage by MMP2 was “efficiently abrogated the cleavage”. Moreover, the “Cleavage of CD95L by MMP3 in vitro” value in the test on CD95L cleavage by MMP3 is “efficiently abrogated the cleavage”. Besides, the “Expression level of membrane-bound CD95L” value in test [1] is “augmentation of m-CD95L similar to that observed with the broad spectrum MMP inhibitor GM6001”. Further, the “Concentrations of s-CD95L in supernatant” value in test [2] is listed as “significantly reduced”. The “Generation of s-CD95L promoting migration of MDA-MB-231 cells” value in test [3] is reported as “inhibited”. In addition, in the test on Jurkat cells, the “Apoptotic function of membrane-bound CD95L” value is “did not prevent the apoptotic function”.
